Measured values as given in ChEMBL document CHEMBL4043061, “Potent, Selective, Allosteric Inhibition of Human Plasmin by Sulfated Non-Saccharide Glycosaminoglycan Mimetics” (J Med Chem, 2017).

Columns and labels:
[1] = substrate: O=c1c(O)c(-c2ccc(O)c(O)c2)oc2cc(O)cc(OCc3ccc(COc4cc(O)cc5oc(-c6ccc(O)c(O)c6)c(O)c(=O)c45)cc3)c12; settings: Homo sapiens; 100 uM
[2] = substrate: O=c1c(OS(=O)(=O)O)c(-c2ccc(OS(=O)(=O)O)c(OS(=O)(=O)O)c2)oc2cc(OS(=O)(=O)O)cc(OCc3ccc(COc4cc(OS(=O)(=O)O)cc5oc(-c6ccc(OS(=O)(=O)O)c(OS(=O)(=O)O)c6)c(OS(=O)(=O)O)c(=O)c45)cc3)c12; settings: Homo sapiens; 1.6 uM
Description: Uncompetitive allosteric inhibition of human plasmin assessed as substrate Km at 1.6 uM using chromogenic substrate spectrozyme PL by Michaelis-Menten plot analysis

[3] = substrate: O=c1c(O)c(-c2ccc(O)c(O)c2)oc2cc(O)cc(OCc3ccc(COc4cc(O)cc5oc(-c6ccc(O)c(O)c6)c(O)c(=O)c45)cc3)c12; settings: Homo sapiens; 240 uM
Description: Competitive allosteric inhibition of human plasmin assessed as Vmax for substrate hydrolysis at 240 uM using chromogenic substrate spectrozyme PL by Michaelis-Menten plot analysis

[4] = substrate: O=c1c(O)c(-c2ccc(O)c(O)c2)oc2cc(O)cc(OCc3ccc(COc4cc(O)cc5oc(-c6ccc(O)c(O)c6)c(O)c(=O)c45)cc3)c12; settings: Homo sapiens; 400 uM
[5] = substrate: O=c1c(OS(=O)(=O)O)c(-c2ccc(OS(=O)(=O)O)c(OS(=O)(=O)O)c2)oc2cc(OS(=O)(=O)O)cc(OCc3ccc(COc4cc(OS(=O)(=O)O)cc5oc(-c6ccc(OS(=O)(=O)O)c(OS(=O)(=O)O)c6)c(OS(=O)(=O)O)c(=O)c45)cc3)c12; settings: Homo sapiens; 40 uM
[6] = substrate: O=c1c(O)c(-c2ccc(O)c(O)c2)oc2cc(O)cc(OCc3ccc(COc4cc(O)cc5oc(-c6ccc(O)c(O)c6)c(O)c(=O)c45)cc3)c12; settings: Homo sapiens; 400 uM; remark: listed apart in the source
[7] = substrate: O=c1c(OS(=O)(=O)O)c(-c2ccc(OS(=O)(=O)O)c(OS(=O)(=O)O)c2)oc2cc(OS(=O)(=O)O)cc(OCc3ccc(COc4cc(OS(=O)(=O)O)cc5oc(-c6ccc(OS(=O)(=O)O)c(OS(=O)(=O)O)c6)c(OS(=O)(=O)O)c(=O)c45)cc3)c12; settings: Homo sapiens; 100 uM
[8] = substrate: O=c1c(OS(=O)(=O)O)c(-c2ccc(OS(=O)(=O)O)c(OS(=O)(=O)O)c2)oc2cc(OS(=O)(=O)O)cc(OCc3ccc(COc4cc(OS(=O)(=O)O)cc5oc(-c6ccc(OS(=O)(=O)O)c(OS(=O)(=O)O)c6)c(OS(=O)(=O)O)c(=O)c45)cc3)c12; settings: Homo sapiens; 8 uM
Description: Uncompetitive allosteric inhibition of human plasmin assessed as substrate Km at 8 uM using chromogenic substrate spectrozyme PL by Michaelis-Menten plot analysis

[9] = substrate: O=c1c(OS(=O)(=O)O)c(-c2ccc(OS(=O)(=O)O)c(OS(=O)(=O)O)c2)oc2cc(OS(=O)(=O)O)cc(OCc3ccc(COc4cc(OS(=O)(=O)O)cc5oc(-c6ccc(OS(=O)(=O)O)c(OS(=O)(=O)O)c6)c(OS(=O)(=O)O)c(=O)c45)cc3)c12; settings: Homo sapiens; 200 uM
[10] = substrate: O=c1c(OS(=O)(=O)O)c(-c2ccc(OS(=O)(=O)O)c(OS(=O)(=O)O)c2)oc2cc(OS(=O)(=O)O)cc(OCc3ccc(COc4cc(OS(=O)(=O)O)cc5oc(-c6ccc(OS(=O)(=O)O)c(OS(=O)(=O)O)c6)c(OS(=O)(=O)O)c(=O)c45)cc3)c12; settings: Homo sapiens; 40 uM; remark: listed apart in the source
[11] = substrate: O=c1c(O)c(-c2ccc(O)c(O)c2)oc2cc(O)cc(OCc3ccc(COc4cc(O)cc5oc(-c6ccc(O)c(O)c6)c(O)c(=O)c45)cc3)c12; settings: Homo sapiens; 240 uM; remark: listed apart in the source
Description: Uncompetitive allosteric inhibition of human plasmin assessed as substrate Km at 240 uM using chromogenic substrate spectrozyme PL by Michaelis-Menten plot analysis

[12] = substrate: O=c1c(OS(=O)(=O)O)c(-c2ccc(OS(=O)(=O)O)c(OS(=O)(=O)O)c2)oc2cc(OS(=O)(=O)O)cc(OCc3ccc(COc4cc(OS(=O)(=O)O)cc5oc(-c6ccc(OS(=O)(=O)O)c(OS(=O)(=O)O)c6)c(OS(=O)(=O)O)c(=O)c45)cc3)c12; settings: Homo sapiens; 100 uM; remark: listed apart in the source
[13] = substrate: O=c1c(O)c(-c2ccc(O)c(O)c2)oc2cc(O)cc(OCc3ccc(COc4cc(O)cc5oc(-c6ccc(O)c(O)c6)c(O)c(=O)c45)cc3)c12; settings: Homo sapiens; 100 uM; remark: listed apart in the source
[14] = substrate: O=c1c(OS(=O)(=O)O)c(-c2ccc(OS(=O)(=O)O)c(OS(=O)(=O)O)c2)oc2cc(OS(=O)(=O)O)cc(OCc3ccc(COc4cc(OS(=O)(=O)O)cc5oc(-c6ccc(OS(=O)(=O)O)c(OS(=O)(=O)O)c6)c(OS(=O)(=O)O)c(=O)c45)cc3)c12; settings: Homo sapiens; 200 uM; remark: listed apart in the source
[15] = substrate: O=c1c(OS(=O)(=O)O)c(-c2ccc(OS(=O)(=O)O)c(OS(=O)(=O)O)c2)oc2cc(OS(=O)(=O)O)cc(OCc3ccc(COc4cc(OS(=O)(=O)O)cc5oc(-c6ccc(OS(=O)(=O)O)c(OS(=O)(=O)O)c6)c(OS(=O)(=O)O)c(=O)c45)cc3)c12; settings: Homo sapiens; 1.6 uM; remark: listed apart in the source
Description: Uncompetitive allosteric inhibition of human plasmin assessed as Vmax for substrate hydrolysis at 1.6 uM using chromogenic substrate spectrozyme PL by Michaelis-Menten plot analysis

[16] = substrate: O=c1c(OS(=O)(=O)O)c(-c2ccc(OS(=O)(=O)O)c(OS(=O)(=O)O)c2)oc2cc(OS(=O)(=O)O)cc(OCc3ccc(COc4cc(OS(=O)(=O)O)cc5oc(-c6ccc(OS(=O)(=O)O)c(OS(=O)(=O)O)c6)c(OS(=O)(=O)O)c(=O)c45)cc3)c12; settings: Homo sapiens; 8 uM; remark: listed apart in the source
Description: Uncompetitive allosteric inhibition of human plasmin assessed as Vmax for substrate hydrolysis at 8 uM using chromogenic substrate spectrozyme PL by Michaelis-Menten plot analysis

B1: Plasminogen (Homo sapiens), P00747 (protein)
chain: MEHKEVVLLLLLFLKSGQGEPLDDYVNTQGASLFSVTKKQLGAGSIEECAAKCEEDEEFTCRAFQYHSKEQQCVIMAENRKSSIIIRMRDVVLFEKKVYLSECKTGNGKNYRGTMSKTKNGITCQKWSSTSPHRPRFSPATHPSEGLEENYCRNPDNDPQGPWCYTTDPEKRYDYCDILECEEECMHCSGENYDGKISKTMSGLECQAWDSQSPHAHGYIPSKFPNKNLKKNYCRNPDRELRPWCFTTDPNKRWELCDIPRCTTPPPSSGPTYQCLKGTGENYRGNVAVTVSGHTCQHWSAQTPHTHNRTPENFPCKNLDENYCRNPDGKRAPWCHTTNSQVRWEYCKIPSCDSSPVSTEQLAPTAPPELTPVVQDCYHGDGQSYRGTSSTTTTGKKCQSWSSMTPHRHQKTPENYPNAGLTMNYCRNPDADKGPWCFTTDPSVRWEYCNLKKCSGTEASVVAPPPVVLLPDVETPSEEDCMFGNGKGYRGKRATTVTGTPCQDWAAQEPHRHSIFTPETNPRAGLEKNYCRNPDGDVGGPWCYTTNPRKLYDYCDVPQCAAPSFDCGKPQVEPKKCPGRVVGGCVAHPHSWPWQVSLRTRFGMHFCGGTLISPEWVLTAAHCLEKSPRPSSYKVILGAHQEVNLEPHVQEIEVSRLFLEPTRKDIALLKLSSPAVITDKVIPACLPSPNYVVADRTECFITGWGETQGTFGAGLLKEAQLPVIENKVCNRYEFLNGRVQSTELCAGHLAGGTDSCQGDSGGPLVCFEKDKYILQGVTSWGLGCARPNKPGVYVRVSRFVTWIEGVMRNN
Vmax [1]: 51 mAU/min | Km [2]: 50 µM | Vmax [3]: 51.7 mAU/min | Km [4]: 1120 µM | Km [5]: 20 µM | Vmax [6]: 51.3 mAU/min | Km [7]: 8 µM | Km [8]: 20 µM | Vmax [9]: 10.4 mAU/min | Vmax [10]: 22.1 mAU/min | Km [11]: 807 µM | Vmax [12]: 15.1 mAU/min | Km [13]: 357 µM | Km [14]: 4 µM | Vmax [15]: 36.3 mAU/min | Vmax [16]: 29 mAU/min
